Source: a protein production outcome set (Wang et al. 2014)

Experiment: label from the status in PepcDB records

Sequence | protein production
MSLKVHHIGYAVKNIDSALKKFKRLGYVEESEVVRDEVRKVYIQFVINGGYRVELVAPDGEDSPINKTIKKGSTPYHICYEVEDIQKSIEEMSQIGYTLFKKAEIAPAIDNRKVAFLFSTDIGLIELLEKEGHHHHHH | not failed
GIHYTSEKDIRQIVRPTIADYWEGKIDEATTYEDLEKLKQELREYRVLDPACGSGNFLYVAYQELKRLERVLLNKIYERRKRFQGEVLQQEEIGIVTPLQFFGMDTNPFAVQLARVTMMIARKIAIDKFGLTEPALPLDSLDQNIVCQDALFNDWPKADAIIGNPPFLGGSRVRLELGDKYVERIFEKFSDVKDKVDFCVYWFRLAHENLNKTGRAGLVGTNSISQGFSRRASLEYIVNNGGIIHDAISTQVWSGQANVHVSLVNWQYLKPPEYVLDHEIVKNINSSLKSETDVSNAVKLK | failed
MRFSSIFKIIILNIFISKMAHAAVCEERYPADSEECQYVQELEQKAEQGDESAQFALGSWYAEGRYVKPDYKLAIKWLEKAGKQGSDFSYFILGYHYNYGENFPLSRQKALEWYRKAAELGDSSTQEILGDAYMYGDGFPQNTQLALEWYRKAASPTNDAGVVRGQGSASSAQFKLGVMYAHGQGVPQDYQQTAILMRKAAENMYYPAQLYLGVAYFYGEGVPQDYRQAVYWLNEGIPGSYTPGHIPLSALYDKAHPADRVHSQTWYRKTAQRVMAKVQYNFGVWYYNGYHLLKDHNLALEWYRRAAAQGLAEAQDAIGVMFMQGEGVSQDYQQALAWYRKAARQGLPAAQTHLGIMSAFGRDVAQSDRQAIAWYRKAAKQDFAKAQYQLGVAYSTGRGVPENSRNALKWYLKAAEQGFTPAQSALGEIYAHGRQGVPKDNKQAYIWYYMASMYTEKSKDDCSALIAERNRLKGTLTPDQLSETYAAFNLIWRKIDQSKEAKKIARKKY | failed
IKENAAQEVLEVQKVIDRLADNGQKALKAFESYNQEQVDNIVHAMALAGLDQHMPLAKLAVEETGRGLYEDKCIKNIFATEYIWNNIKNNKTVGVINEDTQTGVIEIAEPVGVVAGVTPVTNPTSTTLFKAIIAIKTRNPIIFAFHPSAQRCSSEAAKVVYDAAVAAGAPEHCIQWVEKPSLEATKQLMNHDKVALVLATGGAGMVKSAYSTGKPALGVGPGNVPAYIDKTAKIKRSVNDIILSKSFDQGMICASE | failed
MLKNLRLKSFQPEEEYVHFTYSIKNDKREESKELIKEYTTLLQKAIDYLWSLTKIQVRKNGNYKITLPKKKEVYKPLRDELEKINHLASHYVDKAINDAFSILKSWRKRAIKGRASIEKPRVKKAYVRIKTTLRKVVGESVRITVRPYEYITFSWSKSWFSRRVRELELGEPIIKEEKVYLPFRYKLPWATPLNFLAIDSNLYTLDAYDGEKFVTISLKQLYSLKYSMEVKRAKVQSFASKHTKRGRELLRKYSHRERNRVLDFVHKFVNALLDLYPMTFFAVEKLNKESMFVDANDSLSRKISRTVWRSIHRVLKYKAPLYGSFVKEVNPRFTSRSCPRCGFVSRKVGKTFECERCGFKLDRQLNASLNIYLKMCGFPHIRDIARVWVGVIPLMGRRGMNGFPRDFGEAQGLRIDIKYHEIP | failed
MQFTDFSLDQRLLQSLKHMGIATPTAIQEQALPIALAGKDLMASSKTGSGKTLAFLLPALQRVISTRALSKRDPRVLILLPTRELAHQVYSQLRLLVANTQYKAISVLGGENFNDQAKALAKEPHFIVATPGRIADHLEQKNLFLNGLELLILDEADRMLDLGFAPQLKAINEAADHKRRQTLMFSATLDHSEINEIAAALLKNPLHVAIGTAHAEHQDISQRIYLCDHLDHKEALLSRLLSDESHKQVIIFTATRADTERLAAKLSAQGFATAALSGELKQAARNQIMDQFARGQQQILVTTDVASRGLDLLNVSLVINFDMPKFAEEYVHRIGRTGRAGAKGDAISLVGPKDWDSFKKVQLFLRKTFEISVIKGLEAKFTGLKDKPKSVATKGVVKANTKGKSKPKPNVVKAAPSRDKRFITGVDVGDAPMRKKPKAQLLQESDDEI | failed
MFNFFKNKQTEPAAPPPPKDPTPRIEFFNGISEELSNVSLQRNPKTGVKSVSMTFAQLNALDRFQSFTAGSNGIVRLIDEEGDIAVTPSSCRIVFGGEEGDELRGVICRFEIENDDHWERFMRFMHRYADEHGFAYGESAETSNEPSSLASETDSEA | failed
SLTMDVPPTIHVPLPPTSYPAFDAAIFTDIGGRKHQEDRFTLCPQLVPGRDDCAFFGVFDGTVGDFASENVKDLVVPQLISSPAWQEVTEMLRSDVPATEVDEKLPQLLDQAVDDMYKNADNELVKMCEQLNKDYASSTSVTAVLAKGFVAVGHLGDSRIAMGVETPNGLNCEFLTVDHKPDMPHEKLRIMRNGGSVEYLHNHNNKPFIRGGDFSFRKSRGEQPMQLQYSRAFGGKDLKMYGLSNQPDVRVVRVTPQHRVMILATDGLWDVMSAAQAVEIAMQARQEGRNPAQALVEMTLAEQQSRNQSADNITAMTVFFKKTD | not failed
MKLIAVLNLLNQLSNKNSLEEYLNGVIDFLSGWTGCENIGIRVLREAGLAPYVVHRGFDKDFIASESCISVEGDECVCLRVLKQQFKSEDQDHISAAGTYYAPNFYRYVEELREDQLLNFRGLCAHKQFKSLAVIPLLHQGKVVGAIHIADIKDGVFSEEDIHFIETIRPLVAEAIYRHNLEKALEHHHHHH | failed
MKKLLTLFCLMLGLSSTQALAAADNPVELIKDGSRQVLDVLKQDNGKNTKQVRQQAEAIAVPLFDFPRMTALAVGLGWRQATPEQRNELTQQFQTLLVRTYSTTMTRFKTAQVSVQPNPVSGANGKDVTVKSSVTLPGNANPVAVDYVLNKGDKGWKIYNVSVEGASLVTVYRNSFNEEIRKNGVDGLIKLLQDKNAAPAPAAASAAKGKGLEHHHHHH | failed
MVRRTRAEMEETRATLLATARKVFSERGYADTSMDDLTAQASLTRGALYHHFGDKKGLLAAVVEQIDAEMDERLQAISDTAEDDWEGFRCRCRAYLEMALEPEIQRIVLRDARAVLGGASPDSQRHCVESMQRLIDNLIRQGVVAEADPQALASLIYGSLAEAAFWIAEGEDGNARLAQGVAALELLLRGLLVKPR | not failed
MLNMSFAPTSLTVSQMSGTRTIRPLTAATLCGIAFIQDRLIAIDSIKGHLLEIDPKTDNSKILNPHQAKEFTDVTGLAVWEDNLWVTRGNSVYVSKLSSLGLEHFVTLPYSADGVAVWESTVYVSCHRLGYILIFDRDTRKEITRFYAPGVGVENLVVNGNTLWVCDRTEQTVYSMDRATGEVIFSVLTPFESPTGIAVHLDAETGKENLYVAYASEEPYIRDNPNADPNHELTYRDRTFIHPLYYHHQPDKHYALSNGYLIEMSYAEEISPLEEVYIPEVEWRIALPSETERQKIRHIEPIGIPFTEEVIDGQRVALFKFDALVPGERHIFGWKALLEVRGIKYRITPKEVENIPELSPEFQERYLVDDDDLAMDTSIVRRAAEEAVGSETNLLRKMYSIRNYVYDELSYGIKPYIDTPDIVLERGIGSCGEYVGVLLALCRLNGIPCRTVGRYKCPPQAEQQGVPLQPDFNHVWLEFYIPGFGWLPMESNPDDLGRGSQYPTRFFMGLCWYHIEIGKGVSFETISSQGKRLTKDDIPIGDLAINHIRFTIVKELPDF | failed
MRRTPRKATAAGALMAATAFLTVGIQAVPATAKPAAPHPSPLRTGGQEAKLTPAQHSALLKSAAKKTTTTAATLGLGAKEKLVVRDVVKDNDGTLHTRYERTWAGLPVLGGDVVVHTPPASLAAGTVSSTFNNKRTIKVASTTASFTRSAAVTKALKAAKDLAAEKATTDSARKVIWAGSGAPKLAWETVIGGLQDDGTPSQLHVITDATTGKELYRYQGVKTGTGNTQYSGTVSLSTTLSGSTYQLYDTTRGGHKTYSLNNGTSGTGTLMTDADDTWGTGSGSNTQTAGADAAYGAQTTWDFYKNTFGRSGIKNDGVAAYSRVHYSTAYVNAFWDDDCFCMTYGDGTSSTHALTSLDVAGHEMSHGVTSNTAGLNYTGESGGLNEATSDIFGTGVEFYAANSSDVGDYLIGEKIDINGDGTPLRYMDEPDKDGGSADSWYSGVGNLDVHYSSGPANHMFYLLSEGSGSKTINGVTYNSPTSDGVAVAGIGRAAALQIWYKALTTYMTSSTNYAGARTAALNAATALYGASSTQYAGVANAFAGINVGSHVTPPTSGVTVTNPGSQSSTVGTAVSLQVSASSTNSGSLTYAATGLPTGLSVNSSTGVISGTPTTAGTYSTTVTVTDSTGATGTASFTWTVSSSGGGGTCASTQLLGNPGFESGNTTWTASSGVITNSSSEAAHAGSYKAWLDGYGSTHTDTLSQSVTIPSGCKASLTFYLHIDTAETTTSTQYDKLTVTAGSTTLATYSNLNAASGYTQKTFDLSSLAGTTVALKFSGVEDSSLQTSFVIDDTALTTS | failed
MSEEQHILEVLQSDDAEQVREAAYSAGELRLEAAVPHLVRHLQSQNIGVQEAVDNALRKIGGAAAVAGVIPLLRSDDAPIRNISMDILRDIGRDEFDALKQLLHDEDPDIRIFASDILGTSGSILAVPALCEALLRDPEVNVRYQAAVSLGTLAFPEAADCLNKAMQDEEWVQFSVIEALIKIRAESSVNALVKALDTTSDLVASMIVDALGEMGNLKAVPLLLKRIEKSPTPLRNKIVRAIVSILGKKSLSLLGEREQQRLGAYLLAALDDEDEEVQDAAMVGLASLGQAEATVAVLRLAARLDPDRDHERLEAAIRCIGGIGFNEAVEEALSDENESTILMVVEAAADMNPAEIVPALKRIFWDKGRDAQRAIATQLARIASLEDVDFFLDLLERAEDAHVIKAALHFLGHRARPAGVGERMLALLDHPYDDVKEAALEACIALQDVSLCASFRERFHSGDPLQRMMATYAMGRLDVDGNLDVLREALVDDVPDVRKVALEALAGTCPITPEHLELVVPLMHDPVREVRLALVDLFGACPEESVIGHLLEALDDEDDWVRVRAIEALGRLGRKECVTPLIERVDGAGNLVLLKIIEALGSIGGNMAFRALLALMEHEDPEIQQAAEDAVARLGEQDSEGE | failed
MEILKKTGKFLLGVVIGVAIMMFADRYYVKGKRLIADNLPKEPVEYVNPYMGNISHLLVPTYPTVHLPNSMLRVYPERGDFTGDRLGGLPLIVTSHRGSSAFNLSPYQGDEAGLKPVIQYSYDREKIVPYRYQVYLDEANIEVDYAPSHQSAVYSLTFEKDGPAYLVFNSRNGELKCDGNTVSGFQYVDKKTKVYLYAETDKTPEKSGVLASGTVKYGKSSVEGKDAALTLAFSGQKEIGVRYGISFISTEQARKNLEREINSYDVSAIARIGRNEWNDALGKIQVSGGSENDKTVFYTSLYRCYERPVNLSEDGKYYSAFDGKIHEDGGRSFYTDDWIWDTYRATHPLRILIDKERETDIINSYLLMAQQMGTNWMPTFPEVTGDSRRMNSNHAVATVIDAWRKGVRGFDLEKAYEAARKGIEEKTLIPWSAAPSGWLDEFYKEHGYIPALKPGEKETVADVSPWEKRQPVAVTLGTAYDEWCLSQIAAELGKKEDAEYFLARSYNYRNLFNPETRFFHPKDKDGKFIEGVDYRYSGGLGARDYYDENNGYIYRWDVQHNIGDLVSLIGGNEVFTAALDSMFDTPLGMSKWQFYSFLPDHTGNVGMFSMANEPSLHIPYLYNYAGQPWKTQKRIRVLLDQWFRNDLMGVPGDEDGGGMSAFVVFSMMGFYPVTPGSPTYNIGSPVFSDVKIDLGGGNVFEIVADGASHDNKYVQSATLNGEELSGPWFDHSRITAGGVLSLKMGPKANKKWGIGNPPPSVGPMQK | failed
MIKETVFKSFDTPAALEQQLANKIASQLQEAVDARGKASLVVSGGSTPLKLFELLSMKSIDWSDVYITLADERWVDVEDSASNERLVREHLLQNRAANAKFRGLKNMFSTAEAGADMTCESLSNFPRPFDVVVLGMGNDGHTCSWFPCSAELNDALTTQALCVATNPTTAPHGRITLSKNAILNSRQIYLHLVGEQKLSVYRQALENDDVNAMPIRAVLAQRKTPVDVFWSA | failed
